Experimental findings from US11827911B2, “Chimeric bacteriophage lysin with activity against Staphylococci bacteria” (priority 2008, dated 2023) are described below.

One data set has as its system S. aureus. In words: Binding of FITC-labeled phiNM3 CWT to bacterial cells, fluorescence microscopy. Details: species or system Staphylococcus aureus. The following applies: FITC-labeled protein 50 μg, 10 minutes; single or mixed populations. The text has this: (§1) Most preferably, the binding molecule is a soluble binding domain of a bacterial lysin comprising a polypeptide including an amino acid sequence providing specific binding to S. aureus, such as SEQ ID NO:1 (phiNM3 CWT domain). For example, the lysin preferably includes the polypeptide sequence of S. aureus phage phiNM3 lysin (SEQ ID NO:1) (protein accession number YP_908849). The phiNM3 lysin CWT domain (SEQ ID NO:1) corresponding to amino acid residues 158-251 was cloned and expressed. […] FIG. 2A is […] showing the protein of SEQ ID NO:1 in a second column next to a set of marker proteins in a first column. […] Group A streptococci, E. coli and Bacillus cereus were used as controls.
Fluorescent labeling and binding analyses were performed on phiNM3 CWT. S. aureus strain 8325-4 genomic DNA was used to amplify the putative CWT of phiNM3 lysin using primers NM3-FWD […]-3′ (SEQ ID NO:10) and NM3-REV 5′-[…]-3′(SEQ ID NO:11). The resulting amplicon was cloned into the arabinose-inducible expression vector pBAD24. Positive clones containing the insert were confirmed by sequencing. […] The labeled-protein (50 μg) was incubated with bacterial cells for 10 minutes, washed 3× with phosphate-buffered saline (pH 7.4) and observed under fluorescence microscope.

A further data set concerns S. epidermidis. Described as above. As to conditions: FITC-labeled protein 50 μg, 10 minutes.
Text: as §1
(§2) Fluorescent labeling and binding analyses were performed on phiNM3 CWT. S. aureus strain 8325-4 genomic DNA was used to amplify the putative CWT of phiNM3 lysin using primers NM3-FWD […]-3′ (SEQ ID NO:10) and NM3-REV 5′-[…]-3′(SEQ ID NO:11). The resulting amplicon was cloned into the arabinose-inducible expression vector pBAD24. Positive clones containing the insert were confirmed by sequencing. The approximately 10-kDa phiNM3 CWT protein was expressed and the protein was purified in one step by cation-exchange chromatography. The purified protein (1 mg/ml) was incubated with 10 μl of FITC (1 mg/ml) for 1 hour. Excess FITC was removed on a desalting column. The labeled-protein (50 μg) was incubated with bacterial cells for 10 minutes, washed 3× with phosphate-buffered saline (pH 7.4) and observed under fluorescence microscope.

Another data set deals with E. coli. The data set is described as above. The following applies: FITC-labeled protein 50 μg, 10 minutes.
Text: as §1, §2

The next data set relates to Bacillus cereus. Described as above. As to conditions: FITC-labeled protein 50 μg, 10 minutes.
Text: as §1, §2

The next data set relates to Group A streptococci. The description is as above. As to conditions: FITC-labeled protein 50 μg, 10 minutes.
Text: as §1, §2

Data set [1] in a line: Solubility of expressed lysins and chimeras. The following applies: qualitative. How it is done: In another embodiment, the lysin is a chimeric protein that comprises an endopeptidase domain of the S. aureus Twort lysin upstream of the phiNM3 CWT domain (SEQ ID NO:1). The chimeric polypeptide is preferably sufficiently soluble in phosphate buffered saline (PBS). Preferred levels of solubility in PBS for the chimeric lysins is at least about 1 mg/ml and more preferably at least about 3 mg/mL. in PBS. […] One example of such a lysin is provided in SEQ ID NO:2 (AD127), shown in FIG. 5A and consisting of the Twort lysin endopeptidase domain attached to the phiNM3 CWT domain (SEQ ID NO:1). The isolated polypeptide of SEQ ID NO:2 (AD 127) was constructed by engineering S. epidermidis autolysin amidase and Twort lysin endopeptidase domains upstream of phiNM3 CWT domain, respectively.
Traditionally, Bacillus-specific lysins are expressed at high levels and are soluble in E. coli. Therefore, our first attempt was to engineer a 16-amino acid peptide (4) that is conserved in several S. aureus-specific lysins (Lu J Z, Fujiwara T, Komatsuzawa H, Sugai M, Sakon J. 2006. Cell wall-targeting domain of glycylglycine endopeptidase distinguishes among peptidoglycan cross-bridges. (Lue et al. (2006) J. Biol. Chem. 281(1):549-58) The catalytic domain of the Bacillus-specific lysin PlyB was used to generate chimera AD 103 (FIG. 4) (SEQ ID NO: 13). The chimeras were tested for expression, solubility and activity. Then the entire C-terminal CWT domain of PlyB (6) was replaced by the putative C-terminal domain of S. aureus phage Twort lysin (8) to obtain AD 105 (SEQ ID NO: 14). […] Since the lysostaphin catalytic domain […] (10) in AD 112 was of bacterial origin, we attempted to engineer a phage-derived catalytic domain upstream of the lysostaphin CWT. For this, the endopeptidase domain in Twort lysin (14) was used to construct chimera AD 119 (SEQ ID NO:3).

B1: phiNM3 CWT domain: cell wall targeting domain, amino acid residues 158-251 of S. aureus phage phiNM3 lysin, approximately 10-kDa; tested FITC-labeled (protein)
chain: GKSASKITVGSKAPYNLKWSKGAYFNAKIDGLGATSATRYGDNRTNYRFDVGQAVYAPGTLIYVFEIIDGWCRIYWNNHNEWIWHERLIVKEVF
modifications: FITC label; Staphylococcus aureus phage phiNM3
notes: cell wall targeting domain, amino acid residues 158-251 of S. aureus phage phiNM3 lysin, approximately 10-kDa; tested FITC-labeled
Consider B1, for which the “binding to S. aureus cells” value with S. aureus is given as “bound specifically”. Also, the “binding to S. epidermidis cells” value in the data set on S. epidermidis is “bound specifically”. Moreover, the “binding to E. coli” value in the data set with E. coli was “not observed”. Further, the “binding to Bacillus” value in the data set on Bacillus cereus is listed as “not observed”. The binding to streptococci entry with Group A streptococci is “not observed”. Besides, in data set [1], the “solubility of the expressed protein” value is recorded as “highly soluble”.
